Source: patent US12391762B2, “Methods and compositions relating to GLP1R variants” (Twist Bioscience Corporation, priority 2020, dated 2025)

Key:
[1] = Insulin Tolerance Test (ITT); format: in vivo, mouse; conditions: for Area Under the Curve (AUC) in ITT: vs control
Description: Animals. All animal procedures were approved by Institutional Animal Care and Use Committee (IACUC) at the University of California San Francisco and were conducted in accordance with the National Institutes of Health Guide for the Care and Use of laboratory Animals. C57BL/6NHsd (Envigo RMS, LLC) male littermates at 8-10 weeks of age, weighing ˜20-28 grams, were used in all the studies described. The mice were housed in a room that was temperature (22-25 C) and light controlled (12-h: 12-h light/dark cycle starting at 7 AM. The mice were fed with chow diet with 9% fat (PicoLab mouse Diet 20 (#5058), Lab Supply, Fortworth Texas, USA) for the duration of housing at the UCSF animal care facility.
1. mAb administered as a single dose, 15 hours prior to GTT and 21 hours prior to ITT. 2. mAb administered as a double dose, 15 hours prior to GTT and 21 hours prior to ITT plus a second mAb dose 2 hours prior to GTT and ITT. 3. mAb as a single dose 6 hours prior to GTT and ITT. 4. mAb single dose 2 hours prior to GTT and ITT.
Extendin 9-39 Peptide (MedChemExpress, Cat. No.: HY-P0264) were dosed at 1.0 or 0.23 mg/kg at three different administration regimen groups. 1. Extendin administered as a single dose, 21 hours prior to ITT. 2. Extendin administered as a double dose, 21 hours prior to ITT plus a second Extendin dose 2 hours prior to ITT. 3. mAb as a single dose 6 hours prior to ITT.
An Insulin Tolerance Test (ITT) was conducted to assess two different anti-GLP1 mAbs (agonist and antagonist) effect on insulin sensitivity following acute insulin administration. 8 or 10-week old male mice were fasted for 6 hours and body weight was recorded before and after fasting. To avoid circadian variations in mouse blood glucose levels this testing was performed at fixed times. Blood samples were collected by tail nick and baseline glucose was measured prior to insulin injection. Mice were injected, i.p., with a single bolus (0.75 U/Kg body weight) of human insulin (Novolin, Novo Nordisk) and blood glucose levels were measured at 15, 30, 45, 60 and 120 minutes after insulin injection. Blood glucose levels were monitored using a OneTouch Ultra 2 glucose monitor (LifeScan, Inc.).

CHO-parent cells = assay: Flow cytometry binding assay on CHO-parent cells (background binding); design: species or system Chinese Hamster; conditions: for Median RL1-H of Parent Singlets: Table 6D, GLP1R-222 variants
Description: GLP-1R IgG clones were tested in a binding assay coupled to flow cytometry analysis as follows: FLAG-GLP-1R-GFP expressing CHO cells (CHO-GLP-1R) and CHO-parent cells were incubated with 100 nM IgG for 1 h on ice, washed three times and incubated with Alexa 647 conjugated goat-anti-human antibody (1:200) (Jackson ImmunoResearch Laboratories, 109-605-044) for 30 min on ice, followed by three washes, centrifuging to pellet the cells between each washing step. All incubations and washes were in buffer containing PBS+1% BSA. For titrations, IgG was serially diluted 1:3 starting from 100 nM down to 0.046 nM. Cells were analyzed by flow cytometry and hits (a hit is an IgG that specifically binds to CHO-GLP-1R) were identified by measuring the GFP signal against the Alexa 647 signal. Flow cytometry data of binding assays with 100 nM IgG are presented as dot plots. Analyses of binding assays with IgG titrations are presented as binding curves plotting IgG concentrations against MFI (mean fluorescence intensity).

Molecule: Exendin 9-39 [reference compound]
- Area Under the Curve (AUC) in ITT ([1]; 19+2 hour, Exendin 0.23 mg/kg): no significant difference
- Area Under the Curve (AUC) in ITT ([1]; 19+2 hour, GLP1R-3 20 mg/kg, Exendin 1 mg/kg): significant (p<0.0001)
- blood glucose after insulin challenge ([1]; 19+2 hours dosing regimen, C57BL/6NHsd mice): significantly stabilizes a higher blood glucose
- Area Under the Curve (AUC) in ITT ([1]; single 6 hour treatment, GLP1R-3 20 mg/kg, Exendin 1.0 and 0.23 mg/kg): no significant difference

B1: GLP1R222-023: GLP1R-222 variant, optimized from GLP1R-3 (antibody, V domains shown)
VH: QVQLVESGGGVVQPGRSLRLSCAASGFSFSDYGMHWVRQAPGKGLEWVAFISYDANNKYYADSVKGRFTISRDNSKNTLYLQMNSLRAEDTAVYYCAKHMSMQEGAVTGEWQAAKEFIAWLVKGRVRADLVGDAFDVWGQGTLVTVSS
VL: QSVLTQPPSVSAAPGQKVTISCSGSSSNIGNNDVSWYQQLPGTAPKLLIYENTKRPSGIPDRFSGSKSGTSATLGITGLQTGDEADYYCGTWDAGLSTGVFGGGTKLTVL
- Median RL1-H of Parent Singlets (CHO-parent cells): 310
- Bmax CHO Parent (CHO-parent cells; Table 6F, IgG titration): 237.9
- EC50 (CHO-parent cells; Table 6F, IgG titration): 89.4 nM

B2: GLP1R222-090: GLP1R-222 variant, optimized from GLP1R-3 (antibody, V domains shown)
VH: QVQLVESGGGVVQPGRSLRLSCAASGFSFSDYGIHWVRQAPGKGLEWVALISYEGSNKYYADSVKGRFTISRDNSKNTLYLQMNSLRAEDTAVYYCAKHMSMQEGAVTGEKQAAKEFIAWLVKGRVRADLVGDAFDVWGQGTLVTVSS
VL: QSVLTQPPSVSAAPGQKVTISCSGSSSNIADNYVSWYQQLPGTAPKLLIYDNNKRASGIPDRFSGSKSGTSATLGITGLQTGDEADYYCATWDNRLSAGVFGGGTKLTVL
- Median RL1-H of Parent Singlets (CHO-parent cells): 432
- Bmax CHO Parent (CHO-parent cells; Table 6F, IgG titration): 413.4

B3: GLP1R222-082: GLP1R-222 variant, optimized from GLP1R-3 (antibody, V domains shown)
VH: QVQLVESGGGVVQPGRSLRLSCAASGFTFSAYSMHWVRQAPGKGLEWVALISYDATNKYYADSVKGRFTISRDNSKNTLYLQMNSLRAEDTAVYYCAKHMSMQEGAVTGEFQAAKEFIAWLVKGRVRADLVGDAFDVWGQGTLVTVSS
VL: QSVLTQPPSVSAAPGQKVTISCSGSSSNIGSKYVSWYQQLPGTAPKLLIYDNNKRPSGIPDRFSGSKSGTSATLGITGLQTGDEADYYCGTWDISPSAWVFGGGTKLTVL
- Median RL1-H of Parent Singlets (CHO-parent cells): 315
- Bmax CHO Parent (CHO-parent cells; Table 6F, IgG titration): 305

B4: GLP1R222-012: GLP1R-222 variant, optimized from GLP1R-3 (antibody, V domains shown)
VH: QVQLVESGGGVVQPGRSLRLSCAASGFTFNNYGMHWVRQAPGKGLEWVAVISDEGSNKYYADSVKGRFTISRDNSKNTLYLQMNSLRAEDTAVYYCAKHMSMQEGAVTGVGQAAKEFIAWLVKGRVRADLVGDAFDVWGQGTLVTVSS
VL: QSVLTQPPSVSAAPGQKVTISCSGSSSNIGNNDVSWYQQLPGTAPKLLIYDDDKRPSGIPDRFSGSKSGTSATLGITGLQTGDEADYYCGTWDTSLSVGEFGGGTKLTVL
- Median RL1-H of Parent Singlets (CHO-parent cells): 290.5
- Bmax CHO Parent (CHO-parent cells; Table 6F, IgG titration): 340.6

B5: GLP1R222-052: GLP1R-222 variant, optimized from GLP1R-3 (antibody, V domains shown)
VH: QVQLVESGGGVVQPGRSLRLSCAASGFTFNNYPMHWVRQAPGKGLEWVAVISYDESNKYYADSVKGRFTISRDNSKNTLYLQMNSLRAEDTAVYYCAKHMSMQEGAVTGGGQAAKEFIAWLVKGRVRADLVGDAFDVWGQGTLVTVSS
VL: QSVLTQPPSVSAAPGQKVTISCSGSSSNIGKRSVSWYQQLPGTAPKLLIYDNNKRASGIPDRFSGSKSGTSATLGITGLQTGDEADYYCVTWDRSLSAGVFGGGTKLTVL
- Median RL1-H of Parent Singlets (CHO-parent cells): 27565.5
- Bmax CHO Parent (CHO-parent cells; Table 6F, IgG titration): 47529
